± gives the standard deviation of the averaged measurements.
Key:
[1] = system: Saccharomyces cerevisiae; experiment: protein stability index of tFT-peptide fusion in wild type (PSI (0-1 scale)); higher = more stable (slower turnover); conditions: genetic background: wild type
Procedure: (§1)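 MPS profiling in S. cerevisiae of two library types built from selected 12-aa C-degron peptides (IN1, IN2, LN1, LN3, VN2, R1-R5, W1-W3, Atg1 and Rpa12 C-termini): saturation mutagenesis libraries and C-terminal +1 capping libraries (13 aa). Each peptide is fused to the C-terminus of a sfGFP-mCherry timer, after a GGGS linker. Cells are FACS-sorted into 8 mCherry/sfGFP bins and sequenced. PSI runs from 0 (unstable) to 1 (stable), measured once in wild type and in the das1Δ or doa10Δ background.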

[2] = system: Saccharomyces cerevisiae; experiment: protein stability index of tFT-peptide fusion in deletion strain of DAS1 (PSI (0-1 scale)); higher = more stable (slower turnover)
Procedure: as §1

[3] = system: Saccharomyces cerevisiae; experiment: protein stability index of tFT-peptide fusion (C-terminal peptide) (PSI (0-1 scale)); higher = more stable (slower turnover); conditions: temperature: 30 C
Procedure: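 MPS profiling in S. cerevisiae of the yeast C-terminome library: the last 12 aa of each annotated ORF are fused to the C-terminus of a sfGFP-mCherry timer, after a GGGS linker. Cells are FACS-sorted into 8 mCherry/sfGFP bins and deep-sequenced. PSI runs from 0 (unstable) to 1 (stable); wild type and das1Δ backgrounds, two technical replicates each.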

[4] = genetic background: das1 deletion
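Wherever protein stability index of tFT-peptide fusion in deletion strain of DAS1 is given: PSI is a weighted mean of each variant's read distribution over the sorted stability bins, computed only for variants having over 10 reads in total.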
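Wherever protein stability index of tFT-peptide fusion in wild type is given: PSI derived as read-weighted mean over the 8 sorting bins, only variants exceeding 10 total reads kept, mCherry placed adjacent to the peptide and sfGFP distal.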

Sequence	protein stability index [1]	protein stability index [2]	protein stability index [3, 4]	protein stability index ([3]; genetic background: wild type)
CTSCGYKFRTNT	0.579	0.693	–	–
CTSCGYKFTTNN	0.675	0.704	–	–
CTSCGYKIRTNN	0.261	0.704	–	–
CTSCGYQFRTNN	0.496	0.692	–	–
CTSCGYSFRTNN	0.391	0.695	–	–
CTSCGYWFRTNN	0.438	0.668	–	–
CTSCMYKFRTNN	0.207	0.689	–	–
CTSCRYKFRTNN	0.395	0.68	–	–
FNMRWTFRYWVN	0.0433	0.518	–	–
FRGAVGGWRLVG	0.192	0.685	–	–
FSARWTFRYWVN	0.0651	0.553	–	–
FSMMWTFRYWVN	0.0586	0.354	–	–
FSMRWTERYWVN	0.0612	0.572	–	–
VNADDEIENNVD [AMN1 C-terminal 12 aa]	–	–	0.674 ± 0.0091	0.669 ± 0.022
VNGGSKKRKAND [RMI1 C-terminal 12 aa]	–	–	0.664 ± 0.016	0.663 ± 0.0079
VPEFLLHRRNSI [NTE1 C-terminal 12 aa]	–	–	–	0.75 ± 0.05
VPEPGDQPLVQA [YPR078C C-terminal 12 aa]	–	–	0.725 ± 0.022	0.678 ± 0.023
VPLKEELFPSSS [COX6 C-terminal 12 aa]	–	–	0.718 ± 0.025	0.674 ± 0.0019
VPVILREYKGSA [GCD2 C-terminal 12 aa]	–	–	0.725 ± 0.017	0.665 ± 0.0075
VQRSASVVERQE [DUS4 C-terminal 12 aa]	–	–	0.6971 ± 0.0051	0.694 ± 0.0013
VQRVILITHLNV [YOL083C-A C-terminal 12 aa]	–	–	0.6054 ± 0.0053	0.616 ± 0.0084
VREYNKYCEAIL [VPS13 C-terminal 12 aa]	–	–	0.687 ± 0.01	0.667 ± 0.033
VRQMNRLATPLI [PUS2 C-terminal 12 aa]	–	–	0.7095 ± 0.0057	0.7391 ± 0.0066
VTGKEKFEKLRD [SPG3 C-terminal 12 aa]	–	–	0.724 ± 0.0027	0.685 ± 0.024

Sequence	protein stability index [1]	protein stability index [2]	protein stability index [3, 4]	protein stability index ([3]; genetic background: wild type)
VTGPHDRWYVVG [ATG14 C-terminal 12 aa]	–	–	0.76 ± 0.019	0.659 ± 0.024
VTLLQMKKKLEG [PET20 C-terminal 12 aa]	–	–	0.6926 ± 0.0053	0.761 ± 0.042
VTPEEDEEEDEE [RPL22A C-terminal 12 aa]	–	–	0.68 ± 0.03	0.676 ± 0.062
VYGSERDIRAKF [TES1 C-terminal 12 aa]	–	–	0.8078 ± 0.007	0.816 ± 0.068
VYKDWEMNLMLS [ARG81 C-terminal 12 aa]	–	–	0.727 ± 0.025	0.656 ± 0.024
VYLSVIILMGNG [EMA17 C-terminal 12 aa]	–	–	0.212 ± 0.024	0.247 ± 0.012
WEDKYPEMGVTV [YHL044W C-terminal 12 aa]	–	–	0.6911 ± 0.003	0.706 ± 0.0089
WTWLDGKFPTFA [GRE3 C-terminal 12 aa]	–	–	0.751 ± 0.023	0.7093 ± 0.0009
WVCQEILKLCKD [NRK1 C-terminal 12 aa]	–	–	0.675 ± 0.0095	0.713 ± 0.036
WVRLPTTSHGLD [SPO73 C-terminal 12 aa]	–	–	0.71917 ± 0.00042	0.733 ± 0.016
WYQIVVQMIYIC [PSY1 C-terminal 12 aa]	–	–	0.186 ± 0.0065	0.0907 ± 0.006
YDLVEKCVWRGI [ORC3 C-terminal 12 aa]	–	–	0.707 ± 0.041	0.716 ± 0.022
YEEALKLGWDKN [OYE2 C-terminal 12 aa]	–	–	0.735 ± 0.046	0.762 ± 0.0096
YEEAVDLGWNKN [OYE3 C-terminal 12 aa]	–	–	0.721 ± 0.009	0.714 ± 0.042
YGSAPSLDSLFL [YJL067W C-terminal 12 aa]	–	–	0.725 ± 0.02	0.6981 ± 0.0068
YGTSYVFAISFK [YNL266W C-terminal 12 aa]	–	–	0.602 ± 0.036	0.606 ± 0.0098
YIHTYIYLLFVY [YIL100C-A C-terminal 12 aa]	–	–	0.222 ± 0.01	0.198 ± 0.036
YIVECIKNVLTK [APL3 C-terminal 12 aa]	–	–	0.686 ± 0.038	0.698 ± 0.018
YKKMKEMRKKRR [FCF2 C-terminal 12 aa]	–	–	0.703 ± 0.022	0.71 ± 0.05
YLADELSKALLA [RFA1 C-terminal 12 aa]	–	–	0.673 ± 0.0099	0.6545 ± 0.0044
YMMNSQSPRGKI [POM34 C-terminal 12 aa]	–	–	0.71 ± 0.0093	0.732 ± 0.074
YNITQQILQFLH [VAC8 C-terminal 12 aa]	–	–	0.701 ± 0.024	0.327 ± 0.0072
YPAREGEVLRPN [AKR2 C-terminal 12 aa]	–	–	0.675 ± 0.025	0.697 ± 0.017
YSAVGNFFSRKK [YGR035W-A C-terminal 12 aa]	–	–	0.718 ± 0.019	0.6696 ± 0.002

Reference: the supplement of paper PMC10724198
